Tests used:
[1] = biological target: the molecule itself; assay: SEC; gel filtration on HiLoad 16/600 Superdex 200 pg, in the presence of 2 mM Mg2+
[2] = biological target: the molecule itself; assay: crystal structure; X-ray, 1.75 Å, space group P212121, one dimer in the asymmetric unit; SeMet crystals from 0.2 M Li2SO4 and 20% PEG 3350, 25 °C

B1: Ketol-acid reductoisomerase from Sulfolobus acidocaldarius (Sac-KARI), His-tagged recombinant (enzyme)
chain: MAKIYTDKDVSLDVIKEKRVAVLGYGSQGRAWALNLRDSGIKVSVGLEREGNSWKQAENDGFKPLRTEEAVRNSDIIIFLLPDMIQRTVYLERVKPYLKEGMDLVFAHGFNIHYRLIEPPSNVDVYMIAPKAPGPIVREYFAKGGGVPALVATYQDHSGKALQKALAVAKAIGATRAGVIETTFKEETETDLFGEQVDLVGGVMQLMRYAFQTLVEAGYQPEVAYFETINEMKLIVDLVYEKGFSGMLTAVSDTAKYGGMTVGKMVIDESVKERMKKALDNIRSGKFAEKWVEEYGKGANTIKEGMKEVDNSTEEKVGRSLRDIILRGKPKS
notes: pET-21a cloned through NdeI/XhoI with the His-tag coding region kept would give a C-terminal His6 tag (surmised); No tag cleavage is described; also called ilvc1559; source: E. coli BL21 (DE3), purified (heating at 65 °C for 30 min, Ni-NTA, gel filtration)
Which “stoichiometry N” value [1] does the source give for B1 here?
Its value is 2.

B2: SeMet-substituted Sac-KARI (ketol-acid reductoisomerase from Sulfolobus acidocaldarius) (enzyme)
chain: B1 chain
modifications: selenomethionine in place of methionine (SeMet-substituted)
notes: Ketol-acid reductoisomerase (class I KARI) of Sulfolobus acidocaldarius, gene ilvc1559, same pET21a-ilvc construct as m1, expressed with selenomethionine; also called SeMet-containing Sac-KARI; source: Overnight Express Autoinduction System 2 (Novagen) with L-methionine and SeMet; purified as the native protein (heating, Ni-NTA, gel filtration)
Does B2 bind [2]?
Result: binds

Source: publication PMC5940873, “NADH/NADPH bi-cofactor-utilizing and thermoactive ketol-acid reductoisomerase from Sulfolobus acidocaldarius” (Scientific Reports, 2018)
